T1: human IL-11Rα (human, UniProt Q14626 23-363, limits assumed)
T1 construct: Protein coated on ELISA plates and used in solution for BLI; also called hIL-11Rα; hIL-11R
T1 sequence: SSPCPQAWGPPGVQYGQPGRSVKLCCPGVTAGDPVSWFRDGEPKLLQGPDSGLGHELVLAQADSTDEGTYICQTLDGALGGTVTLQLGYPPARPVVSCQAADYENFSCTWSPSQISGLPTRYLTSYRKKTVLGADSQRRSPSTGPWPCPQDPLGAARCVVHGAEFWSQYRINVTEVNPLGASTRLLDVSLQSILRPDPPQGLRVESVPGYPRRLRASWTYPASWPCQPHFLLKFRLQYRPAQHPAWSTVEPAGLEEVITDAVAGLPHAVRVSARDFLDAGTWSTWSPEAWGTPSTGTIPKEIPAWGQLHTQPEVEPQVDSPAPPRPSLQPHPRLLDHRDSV

T2: IL-11R on STAT3 Reporter (Luciferase)-HEK293 cells (UniProt Q14626 23-422)
T2 sequence (looked up): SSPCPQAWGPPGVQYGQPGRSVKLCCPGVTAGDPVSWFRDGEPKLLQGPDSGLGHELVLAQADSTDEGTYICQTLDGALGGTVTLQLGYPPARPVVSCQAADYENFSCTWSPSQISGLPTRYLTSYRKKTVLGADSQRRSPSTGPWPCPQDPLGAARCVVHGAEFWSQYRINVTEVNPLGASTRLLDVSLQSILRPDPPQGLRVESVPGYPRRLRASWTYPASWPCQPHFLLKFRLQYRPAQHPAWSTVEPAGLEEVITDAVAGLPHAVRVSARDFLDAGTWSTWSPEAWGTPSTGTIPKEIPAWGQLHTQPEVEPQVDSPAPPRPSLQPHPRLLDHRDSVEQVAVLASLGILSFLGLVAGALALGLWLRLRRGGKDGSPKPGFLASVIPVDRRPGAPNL

B1: mAb5 (antibody, V domains shown)
VH: EVQLLESGGGLVQPGGSLRLSCAASGFTFSWYSMTWVRQAPGKGLEWVSSIVPYGDLTQYADSVKGRFTISRDNSKNTLYLQMNSLRAEDTAVYYCAKGPGWGSFDLWGRGTLVTVSS
VL: DIQMTQSPSSLSASVGDRVTITCQASQDINNYLNWYQQKPGKAPKLLIYDASNLQTGVPSRFSGSGSGTDFTFTISSLQPEDIATYYCQQHESQSPTFGPGTKVDIK
notes: Expressed as human IgG4 (S228P EU); also called mAb5 IL11RA Ab
B2: mAb15 (antibody, V domains shown)
VH: B1 VH
VL: B1 VL with S93T, S95T
notes: Expressed as human IgG4 (S228P EU)
B3: mAb14 (antibody, V domains shown)
VH: B1 VH with D62E
VL: B1 VL
notes: as for B2
B4: mAb9 (antibody, V domains shown)
VH: B1 VH with S50G
VL: B1 VL
notes: as for B2
B5: mAb13 (antibody, V domains shown)
VH: B1 VH with G99P, P100E, G101D, S104R
VL: B1 VL
notes: as for B2
B6: mAb10 (antibody, V domains shown)
VH: B1 VH with P53A
VL: B1 VL
notes: as for B2
B7: mAb11 (antibody, V domains shown)
VH: B1 VH with P53D
VL: B1 VL
notes: as for B2
B8: mAb12 (antibody, V domains shown)
VH: B1 VH with G103Y
VL: B1 VL
notes: as for B2
B9: mAb8 (antibody, V domains shown)
VH: B1 VH with W31S, S33A, T35S
VL: B1 VL
notes: as for B2
B10: mAb7 (antibody, V domains shown)
VH: B1 VH with W31N, S33A, T35S
VL: B1 VL
notes: as for B2
B11: mAb6 (antibody, V domains shown)
VH: B1 VH
VL: B1 VL with S93F
notes: as for B2
B12: mAb4 (antibody, V domains shown)
VH: B1 VH with G101D
VL: B1 VL with S93F
notes: as for B2
B13: mAb2 (antibody, V domains shown)
VH: B1 VH with Y54S, D56G, L57H, G101D
VL: B1 VL with S93F
notes: as for B2
B14: mAb3 (antibody, V domains shown)
VH: B1 VH with G101D
VL: B1 VL
notes: as for B2

Positions count from the first letter of the chain named. Names and notes keep the numbering of the source.

The text below walks through data of patent US20240425606A1, “ANTI-IL-11RA ANTIBODIES” (Lassen Therapeutics 1, Inc., priority 2021, published 2024).

The target in the first assay is T1, human IL-11Rα. The assay is described as follows: competitive ELISA, IL-11R coated on plate; competitor: biotinylated TS7 (0.1 µg/mL). As to the method:
(§1) Relative binding activity of the antibodies was tested by competitive ELISA using biotinylated mAbs 8E2 or TS7. Antibodies 8E2 and TS7 were biotinylated using sulfo-NHS Biotin (Thermo Fisher) per the manufacturer's instructions. IL-11R was coated onto ELISA plates (Nunc, MaxiSorp) at 2 μg/mL in PBS, and plates were blocked with 2% BSA in PBS. After washing the plate with water, antibodies to be tested were titrated across the plate in a final volume of 90 μL followed by addition of 10 μL of biotinylated 8E2 or biotinylated TS7, as indicated in Table E1 (0.1 μg/mL final concentration) to each well. Plates were incubated for 2 hours on a plate-shaker, followed by washing and addition of 100 μL/well of streptavidin-HRP (Jackson ImmunoResearch, 1/1000 dilution). After a further 1 hour incubation, plates were washed, developed with Ultra-TMB HRP substrate (Thermo Fisher), and stopped by the addition of 50 μL/well of 2 M sulfuric acid. Plates were read at 450 nm on an iD5 plate reader (Molecular Devices).
With B1, the IC50 came to 2.1 µg/mL.

The molecule B2 returned an IC50 of 1.7 µg/mL.

As to B3, the concentration for half-maximal inhibition (IC50) was 2 µg/mL.

In turn, B4 registered an IC50 of 2.3 µg/mL.

Regarding B5, the IC50 came to 2.3 µg/mL.

As to B6, the half-maximal inhibitory concentration (IC50) was above 15 µg/mL.

Take B7: the IC50 was above 15 µg/mL.

The molecule B8 gave an IC50 of 3.6 µg/mL.

In turn, B9 came in with a concentration for half-maximal inhibition (IC50) of 6.2 µg/mL.

Molecule B10 came in with an IC50 of 6.9 µg/mL.

A further assay concerns the target T1, human IL-11Rα. The assay is described as follows: BLI (Octet RED96e), mAb on protein G biosensors, hIL-11Rα in solution. As to the method: Association was carried out in the presence of a 2-fold dilution series of hIL-11Rα and was allowed to proceed for 120 seconds; dissociation was measured for 300 to 1200 seconds.
Consider B1, for which the Kd is below 1 pM, the off-rate (koff) was below 1e-07 s⁻¹ and the association rate constant (kon) came out at 63700 M⁻¹ s⁻¹.

B2 came in with a Kd below 1 pM, an off-rate constant (koff) below 1e-07 s⁻¹ and a kon of 84000 M⁻¹ s⁻¹.

Take B11: the dissociation constant Kd is below 1 pM, the dissociation rate constant (koff) is below 1e-07 s⁻¹ and the on-rate constant (kon) worked out at 800000 M⁻¹ s⁻¹.

With B3, the Kd was below 1 pM, the koff was below 1e-07 s⁻¹ and the kon was 33700 M⁻¹ s⁻¹.

B4 yielded a Kd below 1 pM, a koff below 1e-07 s⁻¹ and an on-rate constant (kon) of 62200 M⁻¹ s⁻¹.

For B5, the dissociation constant (Kd) is below 1 pM, the dissociation rate constant (koff) is below 1e-07 s⁻¹ and the association rate constant (kon) amounted to 66700 M⁻¹ s⁻¹.

In turn, B6 came in with a Kd of 496 pM, an off-rate (koff) of 0.000416 s⁻¹ and a kon of 840000 M⁻¹ s⁻¹.

Turning to B7, the dissociation constant Kd is 550000 pM, the off-rate constant (koff) is 0.0181 s⁻¹ and the kon is 32900 M⁻¹ s⁻¹.

In turn, B8 showed a Kd below 1 pM, a koff below 1e-07 s⁻¹ and a kon of 58100 M⁻¹ s⁻¹.

B9 had a Kd below 1 pM, an off-rate (koff) below 1e-07 s⁻¹ and a kon of 65100 M⁻¹ s⁻¹.

The molecule B10 had a Kd below 1 pM, a dissociation rate constant (koff) below 1e-07 s⁻¹ and an association rate constant (kon) of 63500 M⁻¹ s⁻¹.

A further assay addresses T1, human IL-11Rα. The assay is described as follows: competitive ELISA, IL-11R coated on plate; competitor: biotinylated 8E2 (0.1 µg/mL). Here is the method: as §1
Turning to B1, the half-inhibitory concentration (IC50) was found to be 1.4 µg/mL.

For B11, the half-inhibitory concentration (IC50) was determined as 1.5 µg/mL.

The molecule B12 had a half-inhibitory concentration (IC50) of 5.5 µg/mL.

Take B13: the concentration for half-maximal inhibition (IC50) is above 30 µg/mL.

Molecule B14 displayed an IC50 of 2.8 µg/mL.

For another assay, the target named is T2, IL-11R on STAT3 Reporter …. The assay is described as follows: cell-based or functional assay.
In the case of B1, the “IC50, STAT3 luciferase reporter assay (HEK293), inhibiting IL-11, Assay 1” value (“IC50 … inhibiting IL-11, Assay 1” for short) is 0.16 µg/mL; the “IC50, STAT3 luciferase reporter assay (HEK293), inhibiting IL-11, Assay 2” value (shortened to “IC50 … inhibiting IL-11, Assay 2”) came to 0.18 µg/mL; the “IC50, STAT3 luciferase reporter assay (HEK293), inhibiting IL-11, Mean” value (from here on “IC50 … inhibiting IL-11, Mean”) was 0.17 µg/mL.

For the molecule B2, the “IC50 … inhibiting IL-11, Assay 1” value came out at 0.38 µg/mL; the “IC50 … inhibiting IL-11, Assay 2” value stood at 0.33 µg/mL; the “IC50 … inhibiting IL-11, Mean” value amounted to 0.36 µg/mL.

In the case of B11, the “IC50 … inhibiting IL-11, Assay 1” value amounted to 11 µg/mL; the “IC50 … inhibiting IL-11, Assay 2” value came out at 0.39 µg/mL; the “IC50 … inhibiting IL-11, Mean” value came to 5.7 µg/mL.

Regarding B3, the “IC50 … inhibiting IL-11, Assay 1” value came out at 0.39 µg/mL; the “IC50 … inhibiting IL-11, Assay 2” value amounted to 0.28 µg/mL; the “IC50 … inhibiting IL-11, Mean” value was 0.34 µg/mL.

On to B4, for which the “IC50 … inhibiting IL-11, Assay 1” value was 0.11 µg/mL; the “IC50 … inhibiting IL-11, Assay 2” value came to 0.1 µg/mL; the “IC50 … inhibiting IL-11, Mean” value was determined as 0.1 µg/mL.

With B5, the “IC50 … inhibiting IL-11, Assay 1” value turned out to be 0.05 µg/mL; the “IC50 … inhibiting IL-11, Assay 2” value turned out to be 0.19 µg/mL; the “IC50 … inhibiting IL-11, Mean” value was determined as 0.12 µg/mL.

Regarding B6, the “IC50 … inhibiting IL-11, Assay 1” value is 2 µg/mL and the “IC50 … inhibiting IL-11, Mean” value is 2 µg/mL.

Consider B7, for which the “IC50 … inhibiting IL-11, Assay 1” value was above 100 µg/mL and the “IC50 … inhibiting IL-11, Mean” value is above 100 µg/mL.

Consider B8, for which the “IC50 … inhibiting IL-11, Assay 1” value was 0.42 µg/mL; the “IC50 … inhibiting IL-11, Assay 2” value stood at 0.39 µg/mL; the “IC50 … inhibiting IL-11, Mean” value amounted to 0.41 µg/mL.

On to B9, for which the “IC50 … inhibiting IL-11, Assay 1” value turned out to be 0.67 µg/mL; the “IC50 … inhibiting IL-11, Assay 2” value is 1.25 µg/mL; the “IC50 … inhibiting IL-11, Mean” value turned out to be 0.96 µg/mL.

As to B10, the “IC50 … inhibiting IL-11, Assay 1” value is 1 µg/mL and the “IC50 … inhibiting IL-11, Mean” value came out at 1 µg/mL.

Another assay has as its target T1, human IL-11Rα. The assay is described as follows: BLI (Octet RED96e), mAb on anti-human constant domain (AHC) biosensors, hIL-11R in solution. An excerpt:
A further series of antibodies were designed in which the residue at Kabat position 31 of the heavy chain was varied (mAbs 16-32). In this case an alternate biolayer interferometry assay was used to initially rank the antibodies compared to mAb5, the closest relative in sequence to mAbs 16-32. MAbs were loaded onto anti-human constant domain (AHC) biosensors (FortdBio) in 10× kinetics buffer consisting of PBS, 0.1% BSA, 0.02% Tween 20 for 120 s to achieve a spectral shift value of 0.8 to 1.2 nm. Association was carried out in the presence of 2-fold dilution series of hIL-1 IR and was allowed to proceed for 120 s. Dilution series started 10 nM. The dissociation in 10× kinetics buffer for 1200 s. Binding kinetic measurements were taken on an Octet RED96e instrument.
B1: the Kd was determined as 50 pM, the koff came out at 2.5e-05 s⁻¹ and the on-rate constant (kon) turned out to be 490000 M⁻¹ s⁻¹.
